Earlier results on one substance are cited in article PMC554781.

Broadly, the Kd is the equilibrium constant for the complex coming apart.

For the series, the target named is CD200R (Homo sapiens) (UniProt Q8TD46).
Chain of UniProt Q8TD46 (Q8TD46 25-265): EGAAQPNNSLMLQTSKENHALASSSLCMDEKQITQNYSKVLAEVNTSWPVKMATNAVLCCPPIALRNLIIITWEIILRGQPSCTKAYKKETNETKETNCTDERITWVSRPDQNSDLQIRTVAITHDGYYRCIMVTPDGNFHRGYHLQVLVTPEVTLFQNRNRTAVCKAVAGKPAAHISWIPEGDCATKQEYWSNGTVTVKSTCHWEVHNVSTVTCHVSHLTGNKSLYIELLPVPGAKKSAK

For the substance CD200 (from UniProt P41217), the Kd was 500 nM.
